Laboratory results reported in patent US20220195015A1 (published 2022).

Assays:
[1] = target: SARS-CoV-2 receptor binding domain (RBD), wild type (SARS-CoV-2, UniProt P0DTC2 319-539); test: ELISA, RBD protein coated, mAb titrated
[2] = target: SARS-CoV-2 spike receptor binding domain (RBD), wild type (SARS-CoV-2, UniProt P0DTC2 319-539); test: ELISA, RBD protein coated, mAb titrated

| Binder | EC50 [1] [ng/mL] | EC50 [2] [ng/mL] |
| --- | --- | --- |
| C057 (antibody, V domains shown) VH: QVQLVQSGAEVKRPGASVKLSCKASGYIFTDYSIHWVRQAPGQGLEWMGWVNPNSGGGNSAQKFMDWVTMARDTSITTVYMELSRLRSDDTAVYYCARGPLFHKLVYDSWSGYHDGFDIWGQGTMVTVSS VL: QSALTQPASVSGSPGQSITISCTGTSSDVGAYKFVSWYQQHPGKAPQLIIYEVSNRPSGVSNRFSGSKSGNTASLTISGLQAEDEADYYCSSYTNASTWVFGGGTELTVL | 2.31 | – |
| C059 (antibody, V domains shown) VH: QVQLVQSGAEVKKPGASIKVSCKASGYTFTDYSMHWVRQAPGQGLEWMGWINPNSGGTKYAQKFQGWVTMTRDMSITTVYMELTRLRSDATAVFYCARGPLFHKLVYDSWTGYHDGFDIWGQGTMVTVSS VL: QSALTQPASVSGSPGQSITISCTGTSSDVGGYNYVSWYQHYPGKAPKLMIYEVTHRPSGVSNRFSGSKSGNTASLTISGLQAEDEADYYCSSSTNSSTWVFGGGTKMTVL | 1.88 | – |
| C060 (antibody, V domains shown) VH: EVQLVESGGGLVQPGGSQRLSCAASGFTVSSNYMSWIRQAPGKGLEWVSVIYSGGSAYYVDSVKGRFTISRDNSKNTLYLQMNSLRPEDTAVYYCARIANYMDVWGKGTTVTVSS VL: EIVMTQSPATLSVSPGERATLSCRASQSVSSHLAWYQQKPGQAPRLLIYGASTRATGIPTRFSGSGSGTEFTLTISSLQSEDFAVYYCQQYNNWPPLTFGGGTKVEIK | 43.5 | – |
| C062 (antibody, V domains shown) VH: EVQLVESGGGLVKPGGSLRLTCAASGFTFSTYSMNWVRQAPGKGLEWVSSISSSSSYIYYADSVKGRFTISRDNAKNSLYLQMNSLRAEDTAVYYCARERGYYGGKTPPFLGGQGTLVTVSS VL: NFMLTQPHSVSESPGKTVTISCTGSSGSIASNYVQWYQQRPGSAPTTVIYEDNQRPSGVPDRFSGSIDSSSNSASLTISGLKTEDEADYYCQSYDSSNYWVFGGGTKLTVL | 4.69 | – |
| C089 (antibody, V domains shown) VH: QVQLVESGGGVVQPGRSLRLSCAASGFTFRTYAMHWVRQAPGKGLEWVAVILSDGNNKYYADSVKGRFTISRDNSKNTLYLQMNSLRAEDTAIFYCAREQEANYYDISGYYHWGESLGYWGQGTLVTVSS VL: DIQLTQSPSFLSASVGDRVTITCRASQGISSYLAWYQQKPGKAPKLLIYGASTLQSGVPSRFSGSGSGTEFTLTISSLQPEDFASYYCQKVNSHPPGLTFGGGTKVEIK | 4.69 | – |
| C090 (antibody, V domains shown) VH: QVQLVESGGGVVQPGRSLRLSCAASGFTFRTYAMHWVRQAPGKGLEWVAVILSDGNNKYYADSVKGRFTISRDNSKNTLYLQMNSLRAEDTAIFYCAREQEANYYDISGYYHWGESLGYWGQGTLVTVSS VL: DIQLTQSPSFLSASVGDRVTITCRASQGISSYLAWYQQKPGKAPKFLIYGASTLQSGVPSRFSGSGSGTEFTLTISSLQPEDFASYYCQKVNSYPPGLTFGGGTKVEIK | 6.22 | – |
| C576 (antibody, V domains shown) VH: QVQLVQSGAEVKKPGSSVKVSCKASGGTFSIYAISWVRQAPGQGLEWMGGIIPILGTANYAQKFQGRVTITADESTSTAYMELSSLRSEDTAVYYCASFHVAYGDYIPFDYWGQGTLVTVSS VL: not shown | – | 5.29 |
| C577 (antibody, V domains shown) VH: QVQLVQSGAEVKKPGSSVKVSCKASGDTFSIYAFSWVRQAPGQGLQWMGAIIPLLGTTNYAQKFLGRVTITADESTSTTFMELSSLTSEDTAVYHCATFHVAYGDYIPFDSWGQGTLVIVSS VL: not shown | – | 1.32 |
| C578 (antibody, V domains shown) VH: QVQLVESGGGVVQPGRSLRLSCAASGFTFSSSGMHWVRQAPGKGLEWVAIISYDGSNKYYADSVKGRFTISRDNSKNTLSLQMNSLRAEDTAVYYCAKDPLPFRDFFYYYMDVWGKGTTVTVSS VL: QSALTQPASVSGSPGQSITISCTGTSSDVGGYNYVSWYQQHPGKAPKLMIYDVSNRPSGVSNRFSGSKSGNTASLTISGLQAEDEADYYCSSYTSSSTLGVFGTGTKVTVL | – | 1.08 |
| C581 (antibody, V domains shown) VH: EVQLVQSGAEVKKPGESLKISCKGSGYRFTSYWIAWVRQMPGKGLEWMGIIYPGDSDTRYSPSFQGQVTISADQSISTAYLQWSSLKASDTAMYYCARGGPPGGVKLELTDYWGQGALVTVSS VL: not shown | – | 1.58 |
| C580 (antibody, V domains shown) VH: EVQLVQSGAEVKKAGESLKISCNSSGYSFTNYWIAWVRQVPGKGLEWMGIIYLGDSDTRYSPSFQGRVTISADKSISAAYLHWSSLKASDTAIYYCARGGPPGGVKLELTDFWGQGTLVTVSS VL: not shown | – | 1.81 |
| C591 (antibody, V domains shown) VH: QVQLVQSGAEVKKPGASVKVSCKASGYILTDYFIHWVRQAPGQGLEWMGWINPNSGGTNYAQKFQGRVTMTRDTSISTAYMELSRLRSDDTAVYHCARYKGTTVNTNYYYGMDVWGQGTTVTVSS VL: not shown | – | 3.83 |
| C592 (antibody, V domains shown) VH: QVQLVQSGAEVKKPGASVKVSCKASGYTFTDYFNHWVRQAPGQGLEWMGWINPNSGGTNSAQKFQGRVTMTRDTSITTVYMELSRLRSDDTAVYYCARYKGTTVNTNYYYGMDVWGQGTTVTVSS VL: SYELTQPPSVSVSPGQTASITCSGDKLRNKYACWYQQKAGQSPMLVIYQDTKRPSGIPERFSGSNSGNTATLTISGTQAMDEADYYCQAWDISTVVFGGGTKLTVL | – | 6 |
| C594 (antibody, V domains shown) VH: QVQLVESGGGVVQPGRSLRLSCAASGFTFSSYGMHWVRQAPGKGLEWVAVISDDGSNKYYADSVKGRFTISRDNSKNTLYLQMNSLRAEDTAVYYCAKSWWLSENWFDPWGQGTLVTVSS VL: EIVMTQSPATLSVSPGERATLSCRASQSVSSNLAWYQQKPGQAPRLLIYGASTRATGIPARFSGTGSGTEFTLTISSLQSEDFAVYYCQQYNNWPLTFGGGTKVEIK | – | 2.63 |
| C595 (antibody, V domains shown) VH: QVQLVESGGGVVQAGRSLRLSCAASGFTFSSFGLHWVRQAPGKGLEWVAVISDDGANKYYADSVKGRFTISRDNSKNTLYLQMNSLRADDTAKYYCAKSWWLSENWFDPWGQGTLVTVSS VL: EIVMTQSPATLSVSPGERATLSCRASQSVRSNLAWYQQKPGQAPRLLIYGASTRATGIPARFSGSGSGTDFTLTISSLQSEDFAVYYCQQYNNWPLTFGGGTKVEIK | – | 2.04 |
| C565 (antibody, V domains shown) VH: EVQLVESGGGLIQPGGSLRLSCAASGLIVSSNYMNWVRQAPGKGLEWVSLLYSGGSTYYADSVKGRFTISRDNSKNTLYLQMNSLRPEDTAVYYCARDLSVVGAFDIWGQGTMVTVSS VL: EIVLTQSPGTLSLSPGERATLSCRASQSLPSTYLAWYQQKRGQAPRLLIYGASSRATGIPDRFSGSGSGTDFTLTISRLEPEDFAVYYCQQYGTSPRVTFGPGTKVDIK | – | 1.27 |
| C566 (antibody, V domains shown) VH: QVQLQESGPGLVKSSQTLSLNCSVFGASISSGGYYWTWIRQHPGKGLEWIGYIHYRGTYYNPSLKSRVTMSVDTSKNQFSLKVRSVSAADTAIYYCARAIVVVTLNWFDLWGQGTLVTVSS VL: NFMLTQPHSVSESPGKTVTISCSGSGGSIASNYVQWYQQRPGSAPTAVIYEDNQRPSGVPDRFSGSIDSSSNSASLTISGLKTEDEADYYCQSYDTSNPVIFGGGTKLTV | – | 5.88 |
| C567 (antibody, V domains shown) VH: QVQLQESGPGLVKPSETLSLTCTVSGGSVINGSYYWSWIRQPPGKGLEWIGFVYYSGSTNYNPSLKSRVTISVDTSKNQFSLNLNSVTAADTAVYYCATGSKSSYYFDYWGQGTLVTVSS VL: QSVLTQPPSVSAAPGQKVTISCSGSSSNIGNNYVSWYQQLPGAAPKLLIYENNMRPSGIPDRFSGSKSGTSATLGITGLQTGDEADYYCGTWDSSLSVPYVFGTGTRVTVL | – | 18.9 |
| C568 (antibody, V domains shown) VH: QVQLVQSGAEVKKPGASVKVSCTASGYTFSSYYIHWVRQAPGQGLEWMGIINPGAGSTSYAQKFQGRVAMTTDTSTRTVYMELSSLRSDDTAVYYCARDEAFLPSAIFVGDYWGQGTLVTVSS VL: DIQMTQSPSSLSASVGDRVTITCRASQGIRNDLGWYQQKPGKAPKRLIYAASNLQSGVPSRFSGSGSGTEFTLTISSLQPEDFATYYCLQHSTYPHTWTFGQGTKVEIK | – | 5.99 |
| C569 (antibody, V domains shown) VH: QVQLVESGGNVVQPGRSLRLSCAASGFTFSNYGMHWIRQAPGKGLEWVAVISYDGSDKYYADSVKGRVTISRDNSKNTLYLQMNSLRAEDTAVYYCAKGGPYGDHVRSDYWGLGTLVTVSS VL: DIQMTQSPSSLSASVGDRVTITCQASQDISNYLNWYQQKPGKVPKLLIYDASNLETGVPSRFSGSGSGTDFTFTISSLQPEDIATYYCQQFHNLPLTFGQGTKLEIK | – | 11.1 |
| C570 (antibody, V domains shown) VH: QVQLQESGPGLVKPSETLSLTCTVSGASISSYYWSWIRQPPGKGLEWIGYIYYSGSTNYNPSLKSRVTISLDTSKNQFSLQLSSVTAADTAVYYCATYYFDNSGYSYGLDVWGQGTTVTVSS VL: DIQMTQSPSSLSASVGDRVTIACRASQSISSYLHWYQQQPGKAPKLLIYAVTNLQSGVPSRFSGSGSGTDFTLTISSLQPEDFATYYCQQSYSLPQTFGQGTKVEIK | – | 0.74 |
| C593 (antibody, V domains shown) VH: QVQLVQSGAEVKKPGASVKVSCKASGYTFTSYDINWVRQAPGQGLEWMGWMNPNSGNTDYAQKFQGRFTMTRNTSISTAYMELSSLRSEDTAVYYCASRRWDPLTFYYYMVVWGKGTTVTVSS VL: not shown | – | 4.36 |
| C596 (antibody, V domains shown) VH: QVQLVESGGGVVQPGRSLRLSCAASGITFSHYGMHWVRQAPGKGLEWVALISSDGSKKYYADSVKGRFTISRDNSKSTLYLQMNSLRAEDTAIYYCAKDLGYYYGPPYGPDYWGQGTLVTVSS VL: DIQMTQSPSSLSASVGDRVTITCQASQDVSNSLNWYQQKPGKAPKLLIYDASNLETGVPSRFSGSGSGTDFSFTISSLQPEDIATYYCLQYDNFSMYTFGQGTKLEIK | – | 21 |
